Assay: label from the status in PepcDB records

Sequence | protein production
MAALAEEQTEVAVKLEPEGPPTLLPPQAGDGAGEGSGGTPNNGPNGGGGGNVAVAAAAGGDGGTPKPGVAVSAAAPAGAAPVPAAPAEAGAPHDRQTLLAVLQFLRQSNLREAEEALRREARLLEEAVAGSGAPGELDGAGAEAASALLSRVTASVPGSAAPEPPGTGASVTSVFSGSASGPAAPGKVASVAVEDQPDVSAVLSAYNQQGDPTMYEEYYSGLKHFIECSLDCHRAELSQLFYPLFVHMYLELVYNQHENEAKSFFEKFHGDQECYYQDDLRVLSSLTKKEHMKGNETMLDFRTSKFVLRISRDSYQLLKRHLQEKQNNQIWNIVQEHLYIDIFDGMPRSKQQIDAMVGSLAGEAKREANKSKVFFGLLKEPEIEVPLDDEDEEGENEEGKPKKKKPKKDSIGSKSKKQDPNAPPQNRIPLPELKDSDKLDKIMNMKETTKRVRLGPDCLPSICFYTFLNAYQGLTAVDVTDDSSLIAGGFADSTVRVWSVTPKKLRSVKQASDLSLIDKESDDVLERIMDEKTASELKILYGHSGPVYGASFSPDRNYLLSSSEDGTVRLWSLQTFTCLVGYKGHNYPVWDTQFSPYGYYFVSGGHDRVARLWATDHYQPLRIFAGHLADVNCTRFHPNSNYVATGSADRTVRLWDVLNGNCVRIFTGHKGPIHSLTFSPNGRFLATGATDGRVLLWDIGHGLMVGELKGHTDTVCSLRFSRDGEILASGSMDNTVRLWDAVKAFEDLETDDFTTATGHINLPENSQELLLGTYMTKSTPVVHLHFTRRNLVLAAGAYSPQ | failed
MAAMPKPAAFWNDRFANEEYVYGEAPNRFVASAARTWLPEAGEVLLLGAGEGRNAVHLAREGHTVTAVDYAVEGLRKTERLATEAGVEVEAIQADVREWKPARAWDAVVVTFLHLPADERPGLYRLVQRCLRPGGRLVAEWFRPEQRTDGYTSGGPPDPAMMVTADELRGHFAEAGIDHLEAAEPTLDEGMHRGPAATVRLVWCRPSTSLEHHHHHH | not failed
MAANMYRVGDYVYFENSSSNPYLIRRIEELNKTANGNVEAKVVCFYRRRDISSTLIALADKHATLSVCYKAGPGADNGEEGEIEEEMENPEMVDLPEKLKHQLRHRELFLSRQLESLPATHIRGKCSVTLLNETESLKSYLEREDFFFYSLVYDPQQKTLLADKGEIRVGNRYQADITDLLKEGEEDGRDQSRLETQVWEAHNPLTDKQIDQFLVVARSVGTFARALDCSSSVRQPSLHMSAAAASRDITLFHAMDTLHKNIYDISKAISALVPQGGPVLCRDEMEEWSASEANLFEEALEKYGKDFTDIQQDFLPWKSLTSIIEYYYMWKTTDRYVQQKRLKAAEAESKLKQVYIPNYNKPNPNQISVNNVKAGVVNGTGAPGQSPGAGRACESCYTTQSYQWYSWGPPNMQCRLCASCWTYWKKYGGLKMPTRLDGERPGPNRSNMSPHGLPARSSGSPKFAMKTRQAFYLHTTKLTRIARRLCREILRPWHAARHPYLPINSAAIKAECTARLPEASQSPLVLKQAVRKPLEAVLRYLETHPRPPKPDPVKSVSSVLSSLTPAKVAPVINNGSPTILGKRSYEQHNGVDGNMKKRLLMPSRGLANHGQARHMGPSRNLLLNGKSYPTKVRLIRGGSLPPVKRRRMNWIDAPDDVFYMATEETRKIRKLLSSSETKRAARRPYKPIALRQSQALPPRPPPPAPVNDEPIVIED | failed
MAAPLRIQSDWAQALRKDEGEAWLSCHPPGKPSLYGSLTCQGIGLDGIPEVTASEGFTVNEINKKSIHISCPKENASSKFLAPYTTFSRIHTKSITCLDISSRGGLGVSSSTDGTMKIWQASNGELRRVLEGHVFDVNCCRFFPSGLVVLSGGMDAQLKIWSAEDASCVVTFKGHKGGILDTAIVDRGRNVVSASRDGTARLWDCGRSGCLGVLADCGSSINGVAVGAADNSINLGSPEQMPSEREVGTEAKMLLLAREDKKLQCLGLQSRQLVFLFIGSDAFNCCTFLSGFLLLAGTQDGNIYQLDVRSPRAPVQVIHRSGAPVLSLLSVRDGFIASQGDGSCFIVQQDLDYVTELTGADCDPVYKVATWEKQIYTCCRDGLVRRYQLSDL | failed
MAAQALLSVGERRLLRGVDEQRALGAALARALAPGSVLFLEGELGAGKTTLTQGLLAALGFDGHVTSPTYALMQLYPASAGQVLHVDAYRVRDVAELYEMDLDELIAGSRLSVIEWGEGLYADYPQAPIYLFEHVEGDPETRRVTRRRLEHHHHHH | failed
MAASLRSFLEQLKRQNSLYLVKKPVNPRFELGALLKKTKGTVPMFFQNIEGYDVPAVGGIVGTRENFAQALRINKSELLAKITEAITNPGETRLLPSGPVQENVLTKGFDIGKMFPIPTFHEKDSGAFITAGIVVAKDPIYGRRFTSIRRMQLNGPNNLSILIESPGLIEQYYEFERRGQAMEVAIVLGVHPAITLSSQLPTQTFGLDKYNVASRLIGEPLPVVKCKTIDLEVPADAEIVLEGRMLPYVRHPEGPFGELMGYYGPQTMQPVVEVTAVTFRNNPIFQVIFPSSYEHKLPNALMREVVLFNHVRHVVPTVQDVHLTMAGGGRCHAIISIKKTAEGQGKQAIFAALASNKDVKHVVVVNDDVDIFDPEDVEWAIATRVQADQDIIIIPGAQGTPLEPSHNLRGVSAKMGIDATYPLAEEERFARTQIPGYDQIRLEDYLTLDW | not failed
MAASTDIAGLEESFRKFAIHGDPKASGQEMNGKNWAKLCKDCKVADGKAVTGTDVDIVFSKVKAKSARVINYEEFKKALEELATKRFKGKSKEEAFDAICQLIAGKEPANIGVTKAKTGGAVDRLTDTSKYTGSHKER | not failed
MAAVSPAAAARSAAAAVRDGGEMVRRMTPQDLDRIAQAVAEAEKTTAGEIFCVLTPEVSDYRETPLVWAAASALVLPAGALLAGFRPEMLTRLFGGWSVGHQAAHDGAILSALSTYIVLQLVVFVVAALVVSIPPVRRALTPGALKTARVKRAAMEQFLSHGLHVTRDRTGVLIFAALAEHRVEVIADEGIYKAAPNAVWNEVVADLVAGLKRGKIADGFVAAVARTGGILAAHVPPRGDDRNELSDGLTILPRR | failed
MADCDSVTNSPLATATATLHTNRGDIKIALFGNHAPKTVANFVGLAQGTKDYSTQNASGGPSGPFYDGAVFHRVIQGFMIQGGDPTGTGRGGPGYKFADEFHPELQFDKPYLLAMANAGPGTNGSQFFITVGKTPHLNRRHTIFGEVIDAESQRVVEAISKTATDGNDRPTDPVVIESITIS | not failed
MADERRCGVCRPLGGPRQPWPAGLLHCSSRAIFASLCMPRIVFAPAIQRHVAMPALDVGAATVAAALQAAFAREPRLRGYLLDDQGSLRRHVALFVDGVQVRDRRGLGDPLQDDSEIYVVQALSGGLEHHHHHH | failed
MADFLLELRSEEIPAGLQKMAVEKLAELLSAKLKEAGINPTKIEKYATPRRIALLMRDLPAKTEAVQEERRGPRADAPEKALAGFLRSTGLTKEELELRETPKGNFYYAHIEKPGQTLIALLGEAIPAIIKTFPWPKSMRWGNFSASSESLRWVRPLKGIVALIDEQLIPIELDGITSGTETKGHPFHHPDVVTLAKASDYPEKMAAAHVMIDFDARVQKITDEARKAAQKAGLTLIEDAALAQENAGLTEWPVPLLGRFDEAYLAVPREVIQLTMRTNQKYFACTDRNQDLAAVFICVADMEAQDGGKEITQGNEKVLSARLADARFFWEQDLKIPLEDWLPRLDSVLFYEGMGSVGDKAKRIAHLSGYIADQIGADRKQAERAGLLAKADLASNMVGEFPELQGVMGGYYAKAGNEAPDVVSAVSGQYQAEAGAGVAAAVSLADRIDSLACFFVRNIRPTGSKDPFALRRAAVQIIQTIIAHQLRLPLTPLFEKAGAGDQIESLLAFITERLKVQQREAGIRYDLIDAVLALGYEDDVIRLLARVQALQSFIESEDGSDLLAGYRRAVNILKGSEASEKGDISQEDIEQPEQDLQKALQAIEAPLEQALKAEDYAAAMTALASLRQPIDQFFDKVIVNHDKAGIRSRRLALLEQIRTAMHQVADFSVVEALTIEASGRKR | failed

Source: a protein production outcome set (Wang et al. 2014)
